The series deals with the molecule itself. The series can be described thus: SEC; gel-filtration chromatography of the pure proteins; Sephacryl S-200, 10 mM Tris-HCl pH 8.0, 0.15 M NaCl, 0.8 ml/min; results not shown.

B1: Caenorhabditis elegans manganese superoxide dismutase MnSOD-2 (enzyme)
chain: MKHSLPDLPYDYADLEPVISHEIMQLHHQKHHATYVNNLNQIEEKLHEAVSKGNVKEAIALQPALKFNGGGHINHSIFWTNLAKDGGEPSAELLTAIKSDFGSLDNLQKQLSASTVAVQGSGWGWLGYCPKGKILKVATCANQDPLEATTGLVPLFGIDVWEHAYYLQYKNVRPDYVNAIWKIANWKNVSERFAKAQQ
notes: N-terminal methionine of the expression construct, retained in the purified protein by mass spectrometry; Superoxide dismutase [Mn]; Expressed without a histidine tag; Cloning is as in Hunter et al., 1997
Regarding B1, the stoichiometry N (in general, a count of units in the complex or per binding partner) stood at 4.

B2: Caenorhabditis elegans manganese superoxide dismutase MnSOD-3 (enzyme)
chain: MKHTLPDLPFDYADLEPVISHEIMQLHHQKHHATYVNNLNQIEEKLHEAVSKGNLKEAIALQPALKFNGGGHINHSIFWTNLAKDGGEPSKELMDTIKRDFGSLDNLQKRLSDITIAVQGSGWGWLGYCKKDKILKIATCANQDPLEGMVPLFGIDVWEHAYYLQYKNVRPDYVHAIWKIANWKNISERFANARQ
notes: as for B1
For the protein B2, the “stoichiometry N” value worked out at 4.
